Measured values as given in patent publication US20190309300A1 (TECHNION RESEARCH AND DEVELOPMENT FOUNDATION, published 2019).

B1: 3HA tagged ENIGMA fragment containing the linker and first LIM domain (other, mouse, UniProt Q3TJD7 86-338, looked up)
chain: PVQSKPQKALTPPADPPRYTFAPSASLNKTARPFGAPPPTDSTLRQNGQLLRQPVPDASKQRLMEDTEDWRPRPGTGQSRSFRILAHLTGTEFMQDPDEEFMKKSSQVPRTEAPAPASTIPQESWPGPTTPSPTSRPPWAVDPAFAERYAPDKTSTVLTRHSQPATPTPLQNRTSIVQAAAGGGTGGGSNNGKTPVCHQCHKIIRGRYLVALGHAYHPEEFVCSQCGKVLEEGGFFEEKGAIFCPSCYDVRYA
notes: domain: linker and first LIM domain; not shown: 3HA tag
B2: 3HA tagged ENIGMA fragment containing the PDZ domain and linker (other, mouse, UniProt Q3TJD7 1-279, looked up)
chain: MDSFKVVLEGPAPWGFRLQGGKDFNVPLSISRLTPGGKAAQAGVAVGDWVLNIDGENAGSLTHIEAQNKIRACGERLSLGLSRAQPVQSKPQKALTPPADPPRYTFAPSASLNKTARPFGAPPPTDSTLRQNGQLLRQPVPDASKQRLMEDTEDWRPRPGTGQSRSFRILAHLTGTEFMQDPDEEFMKKSSQVPRTEAPAPASTIPQESWPGPTTPSPTSRPPWAVDPAFAERYAPDKTSTVLTRHSQPATPTPLQNRTSIVQAAAGGGTGGGSNNGKT
notes: domain: PDZ domain and linker; not shown: 3HA tag

Target: T1, flag tagged full length HDAC4 (human, UniProt P56524 1-1084)
T1 construct: Full length, expressed in transfected cells and immunoprecipitated from lysate; also called Flag-HDAC4; pcDNA HDAC4-flag; not shown: Flag tag
T1 sequence (P56524 whole entry): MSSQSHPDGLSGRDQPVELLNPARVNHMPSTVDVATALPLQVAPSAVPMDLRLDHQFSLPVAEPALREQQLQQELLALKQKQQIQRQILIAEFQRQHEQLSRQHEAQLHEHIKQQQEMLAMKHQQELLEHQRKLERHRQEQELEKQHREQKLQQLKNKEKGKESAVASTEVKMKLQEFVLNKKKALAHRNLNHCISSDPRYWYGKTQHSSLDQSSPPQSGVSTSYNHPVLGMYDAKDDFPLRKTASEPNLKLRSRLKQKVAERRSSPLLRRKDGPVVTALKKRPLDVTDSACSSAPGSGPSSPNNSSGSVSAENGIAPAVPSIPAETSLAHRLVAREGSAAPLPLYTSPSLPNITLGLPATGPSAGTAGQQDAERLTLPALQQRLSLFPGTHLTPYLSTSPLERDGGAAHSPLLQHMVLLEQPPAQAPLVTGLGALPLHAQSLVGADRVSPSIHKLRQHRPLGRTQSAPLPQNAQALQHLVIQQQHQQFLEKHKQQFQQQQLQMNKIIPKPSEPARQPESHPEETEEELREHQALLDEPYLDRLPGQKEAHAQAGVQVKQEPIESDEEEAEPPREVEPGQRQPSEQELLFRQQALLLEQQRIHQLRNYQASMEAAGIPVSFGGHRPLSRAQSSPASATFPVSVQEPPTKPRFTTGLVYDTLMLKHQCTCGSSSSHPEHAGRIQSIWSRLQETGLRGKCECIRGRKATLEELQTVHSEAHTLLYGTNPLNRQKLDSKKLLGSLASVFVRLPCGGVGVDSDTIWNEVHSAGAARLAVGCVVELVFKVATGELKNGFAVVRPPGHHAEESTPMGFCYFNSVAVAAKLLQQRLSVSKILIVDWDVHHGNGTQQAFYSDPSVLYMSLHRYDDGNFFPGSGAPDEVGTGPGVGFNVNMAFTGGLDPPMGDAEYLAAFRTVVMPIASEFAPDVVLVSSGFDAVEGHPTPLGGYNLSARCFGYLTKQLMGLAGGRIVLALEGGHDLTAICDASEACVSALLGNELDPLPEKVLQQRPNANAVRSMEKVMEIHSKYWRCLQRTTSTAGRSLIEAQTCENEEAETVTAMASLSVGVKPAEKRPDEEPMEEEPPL
Test: co-immunoprecipitation, IP anti-Flag, blot anti-HA (FIG. 7B)
Procedure: Cultured cells were washed with ice-cold phosphate-buffered saline (PBS) buffer and lysed in buffer containing 50 mM Tris, pH 7.5, 150 mM NaCl, 1 mM EDTA, and 1% NP-40. 400 μg of protein was immunoprecipitated with anti-Flag (Sigma-Aldrich), or IgG antibodies (negative control) and protein A/G agarose beads (Santa Cruz Biotechnology, Inc.) as described previously [Kehat I, et al., Modulation of chromatin position and gene expression by HDAC4 interaction with nucleoporins. J Cell Biol 2011, 193, 21-29]. Beads were washed three times with buffer and suspended in 30 μl of Laemmli buffer. Proteins were separated on an SDS gel, blotted, and detected with primary antibody recognizing HA (Santa Cruz Biotechnology, Inc. sc-805) or flag (Sigma-Aldrich).

Binder | binding result
B1 | no binding
B2 | no binding
